Test results published in the Human Domainome abundance scans (Beltran et al. 2025).
± gives the uncertainty stated by the source.

assay: abundance fitness (aPCA) (normalised: wild type 0, dead -1); higher = more abundant; growth selection in yeast, the domain comes from the species named; conditions: Homo sapiens

Substance | abundance fitness
Scaffold attachment factor B1 K63H, Q15424 | -0.541 ± 0.1
Scaffold attachment factor B1 K63I, Q15424 | -0.394 ± 0.09
Scaffold attachment factor B1 K63L, Q15424 | -0.237 ± 0.044
Scaffold attachment factor B1 K63M, Q15424 | -0.43 ± 0.07
Scaffold attachment factor B1 K63P, Q15424 | -0.61 ± 0.054
Scaffold attachment factor B1 K63Q, Q15424 | -0.085 ± 0.079
Scaffold attachment factor B1 K63R, Q15424 | -0.144 ± 0.055
Scaffold attachment factor B1 K63T, Q15424 | -0.238 ± 0.081
Scaffold attachment factor B1 K63V, Q15424 | -0.185 ± 0.056
Scaffold attachment factor B1 K63W, Q15424 | -0.398 ± 0.057
Scaffold attachment factor B1 K63Y, Q15424 | -0.42 ± 0.067
Scaffold attachment factor B1 L31A, Q15424 | -0.333 ± 0.069
Scaffold attachment factor B1 L31C, Q15424 | -0.553 ± 0.069
Scaffold attachment factor B1 L31D, Q15424 | -0.498 ± 0.075
Scaffold attachment factor B1 L31E, Q15424 | -0.496 ± 0.076
Scaffold attachment factor B1 L31F, Q15424 | -0.417 ± 0.098
Scaffold attachment factor B1 L31G, Q15424 | -0.536 ± 0.06
Scaffold attachment factor B1 L31H, Q15424 | -0.575 ± 0.072
Scaffold attachment factor B1 L31I, Q15424 | -0.17 ± 0.06
Scaffold attachment factor B1 L31K, Q15424 | -0.66 ± 0.093
Scaffold attachment factor B1 L31M, Q15424 | -0.338 ± 0.087
Scaffold attachment factor B1 L31P, Q15424 | -0.748 ± 0.071
Scaffold attachment factor B1 L31Q, Q15424 | -0.623 ± 0.08
Scaffold attachment factor B1 L31R, Q15424 | -0.509 ± 0.051
Scaffold attachment factor B1 L31S, Q15424 | -0.547 ± 0.068
Scaffold attachment factor B1 L31T, Q15424 | -0.53 ± 0.1
Scaffold attachment factor B1 L31V, Q15424 | -0.188 ± 0.06

Substance | abundance fitness
Scaffold attachment factor B1 L31W, Q15424 | -0.628 ± 0.052
Scaffold attachment factor B1 L31Y, Q15424 | -0.471 ± 0.07
Scaffold attachment factor B1 L34A, Q15424 | -0.482 ± 0.064
Scaffold attachment factor B1 L34C, Q15424 | -0.321 ± 0.079
Scaffold attachment factor B1 L34D, Q15424 | -0.632 ± 0.081
Scaffold attachment factor B1 L34E, Q15424 | -0.719 ± 0.084
Scaffold attachment factor B1 L34F, Q15424 | -0.212 ± 0.06
Scaffold attachment factor B1 L34G, Q15424 | -0.576 ± 0.056
Scaffold attachment factor B1 L34I, Q15424 | -0.433 ± 0.096
Scaffold attachment factor B1 L34M, Q15424 | -0.067 ± 0.083
Scaffold attachment factor B1 L34N, Q15424 | -0.496 ± 0.078
Scaffold attachment factor B1 L34P, Q15424 | -0.619 ± 0.074
Scaffold attachment factor B1 L34Q, Q15424 | -0.527 ± 0.087
Scaffold attachment factor B1 L34R, Q15424 | -0.554 ± 0.053
Scaffold attachment factor B1 L34S, Q15424 | -0.433 ± 0.065
Scaffold attachment factor B1 L34T, Q15424 | -0.452 ± 0.066
Scaffold attachment factor B1 L34V, Q15424 | -0.738 ± 0.058
Scaffold attachment factor B1 L34W, Q15424 | -0.375 ± 0.075
Scaffold attachment factor B1 L34Y, Q15424 | -0.316 ± 0.056
Scaffold attachment factor B1 L39A, Q15424 | -0.556 ± 0.062
Scaffold attachment factor B1 L39C, Q15424 | -0.745 ± 0.074
Scaffold attachment factor B1 L39D, Q15424 | -1.12 ± 0.13
Scaffold attachment factor B1 L39E, Q15424 | -0.753 ± 0.06
Scaffold attachment factor B1 L39F, Q15424 | -0.665 ± 0.089
Scaffold attachment factor B1 L39G, Q15424 | -0.814 ± 0.052
Scaffold attachment factor B1 L39H, Q15424 | -0.766 ± 0.12
Scaffold attachment factor B1 L39I, Q15424 | -0.264 ± 0.1

Substance | abundance fitness
Scaffold attachment factor B1 L39K, Q15424 | -0.996 ± 0.072
Scaffold attachment factor B1 L39M, Q15424 | -0.304 ± 0.076
Scaffold attachment factor B1 L39N, Q15424 | -0.87 ± 0.066
Scaffold attachment factor B1 L39P, Q15424 | -0.77 ± 0.1
Scaffold attachment factor B1 L39Q, Q15424 | -0.764 ± 0.072
Scaffold attachment factor B1 L39R, Q15424 | -0.894 ± 0.05
Scaffold attachment factor B1 L39S, Q15424 | -0.877 ± 0.056
Scaffold attachment factor B1 L39T, Q15424 | -0.983 ± 0.091
Scaffold attachment factor B1 L39Y, Q15424 | -0.824 ± 0.093
Scaffold attachment factor B1 L43A, Q15424 | -0.225 ± 0.066
Scaffold attachment factor B1 L43C, Q15424 | -0.123 ± 0.068
Scaffold attachment factor B1 L43D, Q15424 | -0.858 ± 0.1
Scaffold attachment factor B1 L43E, Q15424 | -0.761 ± 0.08
Scaffold attachment factor B1 L43F, Q15424 | -1.21 ± 0.073
Scaffold attachment factor B1 L43G, Q15424 | -0.752 ± 0.05
Scaffold attachment factor B1 L43I, Q15424 | -1.02 ± 0.091
Scaffold attachment factor B1 L43K, Q15424 | -0.9 ± 0.095
Scaffold attachment factor B1 L43M, Q15424 | -0.402 ± 0.075
Scaffold attachment factor B1 L43N, Q15424 | -0.936 ± 0.13
Scaffold attachment factor B1 L43P, Q15424 | -1.1 ± 0.11
Scaffold attachment factor B1 L43Q, Q15424 | -0.911 ± 0.063
Scaffold attachment factor B1 L43S, Q15424 | -0.653 ± 0.059
Scaffold attachment factor B1 L43V, Q15424 | -0.714 ± 0.06
Scaffold attachment factor B1 L43W, Q15424 | -1.09 ± 0.083
Scaffold attachment factor B1 L43Y, Q15424 | -1.22 ± 0.07
